What was measured:
Test in all cases: BLI
[1] = target: monoFc-tagged NRP2 (human neuropilin 2 residues 23-595, a1a2b1b2) (human) (UniProt O60462)
[2] = target: NRP2 a2b1b2 (human neuropilin 2 residues 145-595, monoFc-tagged) (human) (UniProt O60462)
[3] = target: soluble ectodomain of the HCMV Pentamer (strain Towne) (Human cytomegalovirus strain Towne, UniProt P17176;F5HCH8;P16837;F5HCP3;F5HET4)

NRP2 a2b1b2 (human neuropilin 2 residues 145-595, monoFc-tagged) (human), sequence (O60462 145-595): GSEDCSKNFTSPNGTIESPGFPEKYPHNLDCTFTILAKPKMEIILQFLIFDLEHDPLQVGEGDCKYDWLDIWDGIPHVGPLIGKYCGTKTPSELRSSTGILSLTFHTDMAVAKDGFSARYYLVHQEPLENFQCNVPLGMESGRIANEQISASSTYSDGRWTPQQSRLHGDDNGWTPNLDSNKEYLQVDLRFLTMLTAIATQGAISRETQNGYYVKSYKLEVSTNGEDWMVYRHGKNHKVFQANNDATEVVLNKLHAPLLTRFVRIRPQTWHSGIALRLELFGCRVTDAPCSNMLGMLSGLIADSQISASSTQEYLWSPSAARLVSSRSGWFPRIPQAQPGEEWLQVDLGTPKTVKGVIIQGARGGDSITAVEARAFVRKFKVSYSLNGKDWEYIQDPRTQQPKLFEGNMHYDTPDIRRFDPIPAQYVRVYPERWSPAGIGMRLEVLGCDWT
monoFc-tagged NRP2 (human neuropilin 2 residues 23-595, a1a2b1b2) (human), sequence (O60462 23-595): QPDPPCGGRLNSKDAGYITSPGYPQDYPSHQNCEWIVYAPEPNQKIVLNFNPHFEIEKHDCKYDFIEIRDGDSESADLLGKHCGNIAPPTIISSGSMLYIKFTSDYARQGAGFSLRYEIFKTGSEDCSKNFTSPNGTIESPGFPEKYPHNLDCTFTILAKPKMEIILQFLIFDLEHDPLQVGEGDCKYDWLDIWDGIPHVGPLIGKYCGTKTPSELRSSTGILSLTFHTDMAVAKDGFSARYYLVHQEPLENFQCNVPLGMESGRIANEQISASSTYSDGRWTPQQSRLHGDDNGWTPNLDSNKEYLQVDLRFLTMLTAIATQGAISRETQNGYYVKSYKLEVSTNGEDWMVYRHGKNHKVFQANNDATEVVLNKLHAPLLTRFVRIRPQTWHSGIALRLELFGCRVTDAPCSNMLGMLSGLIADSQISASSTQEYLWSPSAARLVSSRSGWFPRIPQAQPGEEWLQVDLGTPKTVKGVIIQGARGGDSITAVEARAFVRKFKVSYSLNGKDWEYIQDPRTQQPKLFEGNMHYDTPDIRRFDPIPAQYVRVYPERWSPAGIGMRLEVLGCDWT

soluble ectodomain of the HCMV Pentamer (strain Towne) (from UniProt P17176 24-718) (complex)
Kd [1]: 2.2 nM
Kd [2]: 7.9 nM

B1: 1-32 IgG (antibody, V domains shown)
VH: QVKLVESGGGVVQPGRSLRLSCAGSGFAFDNYAMHWVRQAPGKGLEWVAVISLEGRNKYYAGPAKGRFSISRDNSRNTVHLQMNSLRPEDTAVYFCARDMRYYYDSNGHYRNRYGMDVWGQGTTVIVSS
VL: DIQMTQSPSSLSASVGDSVTITCQASQDINQFVSWYQQKPGKPPKLLIYDASNLESGVPSRFSGSGSGTHFTFTISSLQPDDIATYYCQQYENLFTFGPGTKVDIK
binding result [3]: binds
